Source: the supplement of paper PMC11908140

B1: library; numbered along this chain (parent)
chain: MRKPRAAVGSGHRKQAASQEGRQKHAKNNSQAKPSACDGLARQPEEVVLQASVSSYHLFRDVAEVTAFRGSLLSWYDQEKRDLPWRRRAEDEMDLDRRAYAVWVSEVMLQQTQVATVINYYTGWMQKWPTLQDLASASLEEVNQLWAGLGYYSRGRRLQEGARKVVEELGGHMPRTAETLQQLLPGVGRYTAGAIASIAFGQATGVVDGNVARVLCRVRAIGADPSSTLVSQQLWGLAQQLVDPARPGDFNQAAMELGATVCTPQRPLCSQCPVESLCRARQRVEQEQLLASGSLSGSPDVEECAPNTGQCHLCLPPSEPWDQTLGVVNFPRKASRKPPREESSATCVLEQPGALGAQILLVQRPNSGLLAGLWEFPSVTWEPSEQLQRKALLQELQRWAGPLPATHLRHLGEVVHTFSHIKLTYQVYGLALEGQTPVTTVPPGARWLTQEEFHTAAVSTAMKKVFRVYQGQQPGTCMGSKRSQVSSPCSRKKPRMGQQVLDNFFRSHISTDAHSLNSAAQ

Variants of: B1
Experiment: 8OG:A repair function score (normalized; synonymous = 0, nonsense = -1) (normalized log-likelihood score); higher = more repair activity (WT-like)
Details: with 8OG:A DNA repair reporter (GFP) in HEK-293 MUTYH KO cells
Protocol: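 Saturation mutagenesis (NNN codon scan) of the MUTYH cDNA (521-aa nuclear isoform NM_001048174.1 / NP_001041639), stably expressed under doxycycline induction in HEK-293 MUTYH knockout cells. Cells were co-transfected with an 8OG:A-bearing GFP repair reporter plus mCherry and sorted 72 h later into GFP+ and GFP− bins, three replicates per tile. The Rosace log2 enrichment (GFP+ vs GFP−) was converted per tile to a normalized function score with synonymous variants centered at 0 and nonsense variants (codons 1-471) at -1; low-abundance variants were removed.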

8OG:A repair function score: each site, then its substitutions
L149: V -0.906; S -0.335; R -0.729; C -0.585; Y -0.657; H -1.82; Q -1.06; E -1.24; F -0.43; P -0.979; W -1.46; K -1.17; N -0.783; A -0.323; D -1.19; T -0.81; M -0.664; G -0.743; I -0.462
E141: H 0.19; F -0.392; D -0.251; A -0.0585; N 0.127; T -0.0124; G -0.256; C -0.219; Y -0.924; V -0.27; P -0.499; I -0.599; L -0.401; W -0.348; K -0.0452; M -0.111; R -0.449; S -0.0511
L139: M -0.053; V 0.0777; S -0.0783; W -0.0565; N 0.213; F -0.0535; P 0.0573; R -0.0247; E -0.17; Q -0.0666; G -0.00666; H 0.1; C -0.0786; D -0.831; A -0.241; I 0.139; K -0.511; Y -0.0177; T 0.00391
S153: K -0.0744; R -0.265; W -0.198; F 0.0735; D -0.368; M -0.237; E -0.117; T 0.158; G -0.237; Y -0.143; I -0.105; A 0.0766; Q -0.127; V -0.00826; L 0.0439; H -0.0258; P 0.0253; C -0.074; N -0.152
G148: Q -0.44; I -1.27; D -0.544; A -0.564; R -0.782; N -0.669; Y -0.677; C -0.72; F -0.794; E -0.792; K -0.475; P -1.1; M -1.1; T -0.549; S -0.286; L -1.31; W -1.48; H -0.166; V -1.08
Q144: D -0.5; T -0.0237; P -0.282; R 0.0872; S 0.0476; Y -0.286; A -0.134; G -0.106; N -0.299; E -0.0907; I 0.051; W -0.282; F -0.198; C -0.0295; H -0.0216; V -0.0203; K -7.85e-05; M 0.0906; L -0.000148
L145: H 0.0825; A 0.0661; I -0.102; G 0.0263; D 0.000565; Q 0.154; R -0.0437; V -0.0541; N 0.0178; E -0.0292; K 0.0459; Y 0.0659; T -0.001; C 0.112; P -1.26; M 0.00629; S 0.0372; W -0.0219; F 0.0113
G155: H -0.388; L -0.574; N -0.213; Q -0.682; C -0.117; E -0.691; I -0.489; F -0.526; R -0.543; P -0.0172; K -0.654; A 0.037; D -0.75; M -0.629
S138: H 0.0365; K -0.105; M -0.0953; I -0.286; L -0.279; V -0.188; P -0.0208; E -0.00767; Y -0.0612; D -0.192; F -0.378; N -0.128; R 0.0347; G 0.0657; T 0.0193; Q -0.0419; W -0.724
V142: G -0.5; K -0.84; L -0.245; M -0.673; F -0.926; Q -0.397; W -0.941; I -0.297; T -0.532; Y -0.971; C -0.143; A -0.377; N -1.86; S -0.632; H -0.882; P -0.569; E -0.728; R -0.841; D -1.15
N143: A -0.35; V -0.199; K -0.343; T -0.286; C -0.216; D -0.456; M 0.113; H -0.621; I -0.0751; L -0.0917; E -0.196; S -0.133; P -0.4; R -0.181; F -0.0267; Q -0.222; Y 0.0152; W -0.253; G -0.139
W146: I -0.138; A -0.448; V -0.296; N -0.671; F -0.152; E -1.03; R -1.28; G -0.399; P -1.14; C -0.255; D -1.2; Q -0.345; H -0.738; T -0.294; M -0.182; K -0.739; L -0.263; Y -0.532; S -0.39
Y151: G -1.03; T -0.587; P -1.25; C -0.944; E -1.21; M -0.45; A -0.816; F -0.064; L -0.0762; H -0.509; R -0.389; S -1.29; V -0.583; N -1.33; Q -0.672; I -0.244; K -0.808; W -0.534; D -1
E140: N -0.0981; H -0.253; F -0.353; W -0.595; R -0.124; V -0.181; L -0.0779; A -0.0255; S -0.0988; T -0.149; I -0.242; Q -0.159; G -0.183; C -0.0271; K -0.15; D 0.0449; Y -0.187; P -0.438; M -0.00715
Y152: D -1.08; V -0.573; I -0.496; N -0.779; W -0.762; H -0.695; E -1.16; L -0.707; R -0.956; T -0.854; G -0.713; A -0.881; K -1.07; P -1.28; Q -0.592; F -0.371; M -0.3; C -0.782; S -1.19
G150: H -1.12; K -1.27; Q -1.58; C -0.982; F -1.66; D -1.38; T -1.35; V -1.22; N -1.15; L -1.18; R -1.3; M -1.44; E -1.13; P -1.54; A -1.42; I -1.78; W -1.09; Y -0.803; S -1.26
A147: D -0.118; T -0.154; M -0.0248; F -0.305; I -0.125; S 0.0618; K -0.229; P -0.734; Q 0.00492; C -0.226; R -0.11; W -0.902; V -0.14; Y -0.549; L -0.207; N -0.0408; G -0.174; E -0.144; H -0.241
R154: S -1.03; L -1.06; E -1.23; D -1.11; T -1.16; C -1.08; H -0.851; I -0.971; M -1.16; W -1.03; P -1.06; Q -1.06; Y -1.21; A -0.88; N -0.885; V -1.04; G -1.12; F -1.05; K -0.609
